Test results as given in the supplement of paper PMC12042874.
± gives the uncertainty stated by the source.

Test: amyloid nucleation score (Sup35N fusion, yeast selection) (log enrichment); library NNK3; higher = more nucleation; inactive = no reads after selection
Method in brief: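 Psi-negative yeast expressed Sup35N fused to peptides of 20 random codons. They were induced 24 hours with 100 μM copper sulfate, grown 7 days at 30°C without adenine and uracil, and their plasmid inserts from input and output were Illumina-sequenced. The nucleation score is the DiMSum log enrichment of output over input reads, centred on the mode score of non-aggregating sequences. Sequences with under 100 input reads were excluded.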

Substance	amyloid nucleation score
RYVGAVWYYTMNIVNYNSFI	1.7 ± 0.06
RYVQLCADYSHGF	inactive
SACNAPSLNSTLIVT	inactive
SAEVATFFNCKYHSSLSILT	inactive
SAEVF	inactive
SAGYGLPPPVEYFNWPFSC	-0.394 ± 1.9
SAIYMTVTVLVPFGFEMDNK	0.178 ± 0.49
SAKCTKEFYSNASKYFNSYL	inactive
SAKFTLLGISL	inactive
SALGSSTSFYNGMRRPFRYH	inactive
SAMFTGNLYFDFVDPCYSGW	inactive
SAPRAEVSNRIK	inactive
SARIPSLWNHWRIW	inactive
SARRNSRTFLSLFVFHLFRA	inactive
SARVRAVAMFPPPALT	inactive
SARYDFSYEYGRIKYRELDR	1.1 ± 0.15
SASCKYGVCLSDLLVSDWHY	inactive
SAYRVKMHKRRKAESVLGFR	inactive
SCFTEIEWS	inactive
SCGSSH	inactive
SCHLEVLFISLFD	inactive
SCIFNWFGFYNIINVFNLCF	2.5 ± 0.053
SCILCIFPVRLVFYMM	inactive
SCMKDMWFVRVMIGLEKKNS	inactive

Substance	amyloid nucleation score
SCNNDPFTNDNASLVRLGRE	inactive
SCNSRFMI	-0.082 ± 0.66
SCSIIYRPPSIWRYSKRTSL	inactive
SCVDPVRWLRGASF	inactive
SCWLGVVETRHNLYDAQNGS	inactive
SCYFGILQWSQSPYFHCPFT	inactive
SDCCGRNHVPEGVLWSQFNY	inactive
SDCGDFRLMVFQKSRRDSWN	inactive
SDCSGYLQ	inactive
SDFDMFSCLGNRNLHCSVSV	inactive
SDFRVTPLLYE	inactive
SDGNSMLGDFRVRMVCHMLL	inactive
SDGSTRQSVRRVATPNVSRY	inactive
SDIIM	inactive
SDKPSMLKMIHVMR	inactive
SDMTYHQWGTVYTLD	inactive
SDNFLRNSLSQEYVRQTLGQ	inactive
SDNRSPSLRLFYRPRFHRLG	inactive
SDQSCGDIMMELFWQM	inactive
SDRFYHCTFHAVTVRWKQRV	inactive
SDRYDCRDGSCFNRKVRYSL	inactive
SDSFSGPVKEPRYWGSQ	inactive
SDTRGVF	inactive
SDWFGCVVVTLCLVNHQALS	inactive

Substance	amyloid nucleation score
SDYYMENISFCENMRDILFS	inactive
SECRTRLWLRESYNFSPDVK	inactive
SECWKAFDLGYDNKLSIPRI	inactive
SEGFLAWCLRDLRSGRVAR	inactive
SEIRGNRNMTTEAPT	inactive
SELQYISLIYCDNRVCLHAL	inactive
SEMHRERDTMCKVLPDNDKN	inactive
SENVYPCALKRSKGMLIRMV	inactive
SEPIWYFRGFFCGLGLIWGW	-0.389 ± 0.98
SEPRWSISDYWTKSVDMVLW	1.07 ± 0.2
SERYADL	inactive
SESPKMLVHVVSHILRDFSE	inactive
SESQYRRWYTLAFVYMRHLN	inactive
SESSS	inactive
SESTFYMGRLFKEGPRKHVT	inactive
SETHLLQGDISVVMVLSAN	inactive
SEVGMVSLRLFWLWWVTKPK	inactive
SEVWKWMPDKCVSDGYVFDI	inactive
SFAGVCAMCKTCKRAKGVPA	-0.39 ± 1.9
SFECDRYYFSWDGFMSGLT	inactive
SFFESCF	inactive
SFFGVVGKEFVIVQLAIVSG	inactive
SFLDNCPRGNRGQVGSEPVS	inactive
SFLGLMSMEELITS	inactive

Substance	amyloid nucleation score
SFLHTQSAKDTFVHNAVTYT	inactive
SFLRIDVVWFSAFFGWSPFL	0.357 ± 0.54
SFLYDSVNANLNSTCCCGYI	-0.913 ± 0.9
SFMACRLCGRAVDDIVEYTV	inactive
SFMYVCNLLLSSWSCP	1.83 ± 0.063
SFNLTNSKYWVR	inactive
SFNRGRLATLYSSLVHGRLR	inactive
SFNSNSDDDIIFDALNYTLN	0.069 ± 0.62
SFNVTVRGLSSSN	0.027 ± 0.47
SFPLSYSSYIRLRVFFVE	inactive
SFRFVSLVLFAVNDNYGRCW	1.61 ± 0.13
SFRNKLELFQLVCMHNEPGC	inactive
SFSRPCWLYWAGFLSVVYRC	inactive
SFSYFRVSFEYGRCHRYAEN	inactive
SFSYWGKDRSRVSNL	inactive
SFTIIMALCSV	inactive
SFVKWVKNQHF	inactive
SFVQLMFLFGT	1.83 ± 0.076
SFVYCIVYLQSPFVLSTMVG	2.62 ± 0.078
SGDKSYRSRYHWMGIQRVNR	inactive
SGIAGECFAM	inactive
SGIYTMVWAFGFDVLYLLVS	inactive
SGKDIALMVHCVTVMWDQAY	inactive
SGLIQNTRR	-0.428 ± 1.1

Substance	amyloid nucleation score
SGLKQSPQLVLCAVRPRRSN	inactive
SGMDSKRKDSCLLCVHFHVS	inactive
SGMLKRFSALRGISASVVGV	inactive
SGPGRSACSFYNAIFMRRFQ	inactive
SGRIRVSKSSTGKSLSTSII	inactive
SGVRANFDFLASVAAHPLNS	inactive
SGVTHDHLTYVLGGGKVVSR	inactive
SHSWQLSYSKSRYVIDAIAR	inactive
SHVWPLLMYHGGIVWSKS	inactive
SIDDGLSYLMGKVKIHKSGK	inactive
SIESMCPVYILVVAPEMCR	inactive
SIFPF	inactive
SIFRKINMYL	inactive
SIGWSLCENRRQPGSRWSLP	inactive
SIHLMWRQCYFSLLCVNKGM	inactive
SIILVYKLE	inactive
SIKFYLRLMTSLKVKLY	inactive
SILGFT	inactive
SILKGGFCYMNFRSGKWGV	inactive
SILLLDSEGSMNLEAIV	inactive
